Laboratory results from doi:10.64898/2025.12.03.692134 (bioRxiv, 2025).

T1: Torpedo nicotinic acetylcholine receptor δ subunit (Tetronarce californica (Pacific …, UniProt P02718 22-522))
T1 sequence: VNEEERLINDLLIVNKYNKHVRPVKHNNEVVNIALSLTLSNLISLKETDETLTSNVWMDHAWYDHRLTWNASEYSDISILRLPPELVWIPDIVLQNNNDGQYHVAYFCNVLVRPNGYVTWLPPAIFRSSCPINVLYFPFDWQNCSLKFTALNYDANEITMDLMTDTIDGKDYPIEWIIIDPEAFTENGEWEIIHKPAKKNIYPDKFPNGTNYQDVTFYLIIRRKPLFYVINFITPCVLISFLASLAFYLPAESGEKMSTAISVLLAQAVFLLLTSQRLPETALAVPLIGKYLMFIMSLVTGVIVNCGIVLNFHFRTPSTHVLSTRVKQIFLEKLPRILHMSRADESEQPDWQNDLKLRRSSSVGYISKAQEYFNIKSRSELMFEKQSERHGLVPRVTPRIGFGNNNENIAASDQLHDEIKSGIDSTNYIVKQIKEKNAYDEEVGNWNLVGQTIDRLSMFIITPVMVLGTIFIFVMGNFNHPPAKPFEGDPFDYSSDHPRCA

B1: Torpedo nicotinic acetylcholine receptor α subunit (receptor)
chain: SEHETRLVANLLENYNKVIRPVEHHTHFVDITVGLQLIQLISVDEVNQIVETNVRLRQQWIDVRLRWNPADYGGIKKIRLPSDDVWLPDLVLYNNADGDFAIVHMTKLLLDYTGKIMWTPPAIFKSYCEIIVTHFPFDQQNCTMKLGIWTYDGTKVSISPESDRPDLSTFMESGEWVMKDYRGWKHWVYYTCCPDTPYLDITYHFIMQRIPLYFVVNVIIPCLLFSFLTGLVFYLPTDSGEKMTLSISVLLSLTVFLLVIVELIPSTSSAVPLIGKYMLFTMIFVISSIIITVVVINTHHRSPSTHTMPQWVRKIFIDTIPNVMFFSTMKRASKEKQENKIFADDIDISDISGKQVTGEVIFQTPLIKNPDVKSAIEGVKYIAEHMKSDEESSNAAEEWKYVAMVIDHILLCVFMLICIIGTVSVFAGRLIELSQEG
B2: Torpedo nicotinic acetylcholine receptor β subunit (receptor)
chain: SVMEDTLLSVLFETYNPKVRPAQTVGDKVTVRVGLTLTNLLILNEKIEEMTTNVFLNLAWTDYRLQWDPAAYEGIKDLRIPSSDVWQPDIVLMNNNDGSFEITLHVNVLVQHTGAVSWQPSAIYRSSCTIKVMYFPFDWQNCTMVFKSYTYDTSEVTLQHALDAKGEREVKEIVINKDAFTENGQWSIEHKPSRKNWRSDDPSYEDVTFYLIIQRKPLFYIVYTIIPCILISILAILVFYLPPDAGEKMSLSISALLAVTVFLLLLADKVPETSLSVPIIIRYLMFIMILVAFSVILSVVVLNLHHRSPNTHTMPNWIRQIFIETLPPFLWIQRPVTTPSPDSKPTIISRANDEYFIRKPAGDFVCPVDNARVAVQPERLFSEMKWHLNGLTQPVTLPQDLKEAVEAIKYIAEQLESASEFDDLKKDWQYVAMVADRLFLYVFFVICSIGTFSIFLDASHNVPPDNPFA

Key:
[1] = molecular target: B2; experiment: cryo-EM structure
[2] = molecular target: T1, Torpedo nicotinic acetylcholine …; experiment: cryo-EM structure

B1
binding result [1]: binds

B2
binding result [2]: binds
